Data reported in patent US20250325702A1, “COMPOSITIONS AND METHODS FOR EDITING A TRANSTHYRETIN GENE” (Beam Therapeutics Inc., priority 2022, published 2025).
In the oligonucleotide strings, read from the 5' end, every base follows the letter of its sugar. An asterisk marks phosphorothioate; unmarked linkages are phosphodiester. Other units and linkages are bracketed, terminal groups are in braces. A string of capitals states the bases alone. m = 2'-O-methyl; r = 2'-OH (RNA)

Experiments:
[1] = test system: on-target site and candidate off-target sites; experiment: Validation of candidate off-target sites in primary human hepatocytes; assay type: cell-based; details: for editing efficiency at the on-target site: gRNA + ABE8.8 mRNA
Procedure: Several candidate off-target sites were analyzed for off-target editing in human primary hepatocytes.

[2] = test system: human TTR gene; experiment: Base editing in primary human hepatocytes (gRNA + ABE8.8 mRNA transfection, NGS of amplicons); assay type: cell-based; details: for Human hepatocytes- Editing % 625, rep 1 / Human hepatocytes- Editing % 625, rep 2: 625 ng/RNA/mL; for Human hepatocytes- Editing % 625, rep 1 / Human hepatocytes- Editing % 625, rep 2 / Human hepatocytes- Editing % 1250, rep 1 / Human hepatocytes- Editing % 1250, rep 2 / Human hepatocytes- Editing % 2500, rep 1 / Human hepatocytes- Editing % 2500, rep 2: gRNA + ABE8.8 mRNA 1:1; for Human hepatocytes- Editing % 1250, rep 1 / Human hepatocytes- Editing % 1250, rep 2: 1250 ng/RNA/mL; for Human hepatocytes- Editing % 2500, rep 1 / Human hepatocytes- Editing % 2500, rep 2: 2500 ng/RNA/mL; for editing activity (percent splice editing) in human hepatocytes: primary human hepatocytes, ABE8.8 mRNA 1:1, three days after transfection
Excerpt: In this example, gRNA sequences were identified that permit ABE8.8 (and other ABE variants containing Streptococcus pyogenes Cas9, such as ABE7.10, or another Cas protein that can use the NGG PAM) to either: 1) disrupt the start codon, and/or 2) disrupt splice sites, whether donors or acceptors, via A→G editing within its editing window (roughly positions 4 to 7 in the 20-nt protospacer region of DNA). Five sequences were identified throughout the human TTR gene that disrupt TTR expression (Table 8). gRNAs were synthesized matching each of the protospacer sequences and otherwise conforming to the standard 100-nt Streptococcus pyogenes CRISPR gRNA sequence, with each gRNA molecule having a minimal degree of chemical modifications (specified in Table 8). Each of the gRNAs was co-transfected with an equivalent amount of in vitro transcribed ABE8.8 mRNA (1:1 ratio by molecular weight) into primary human hepatocytes via MessengerMax reagent (Lipofectamine), using various dilutions (2500,1250, 625 ng/RNA/mL) to assess for editing activity at different concentrations of test article.
(§1) For orthogonal protospacer sequences of the corresponding cynomolgus monkey TTR gene sequence, each gRNA was also transfected with an equivalent amount of ABE8.8 mRNA (1:1 ratio by molecular weight) into primary cynomolgus hepatocytes at 5000, 2500, 1250, 625, 312.5, and 156.25 ng/RNA/mL. The mRNA, and corresponding amino acid, sequence of the ABE8.8 (MA004) used in shown below in Table 18. Three days after transfection, genomic DNA was harvested from the hepatocytes, and assessed for base editing with next-generation sequencing of PCR amplicons generated around the target splice site. […] See FIGS. 5A-5C, FIG. 6, and Tables 9-10.

[3] = biological target: purified cyno TTR protein (Abcam, ab239566) (cyno (Macaca fascicularis)) (UniProt Q8HXW1); experiment: sandwich ELISA; known concentrations of purified cyno TTR run on the human TTR kit, read against the human TTR standards
[4] = test system: cynomolgus monkey TTR gene; experiment: Base editing in primary cynomolgus hepatocytes (gRNA + ABE8.8 mRNA transfection, NGS); assay type: cell-based; details: for Cyno hepatocytes- Editing % 156.25: 156.25 ng/RNA/mL; for Cyno hepatocytes- Editing % 156.25 / Cyno hepatocytes- Editing % 312.5 / Cyno hepatocytes- Editing % 625 / Cyno hepatocytes- Editing % 1250 / Cyno hepatocytes- Editing % 2500 / Cyno hepatocytes- Editing % 5000: gRNA + ABE8.8 mRNA 1:1; for Cyno hepatocytes- Editing % 312.5: 312.5 ng/RNA/mL; for Cyno hepatocytes- Editing % 625: 625 ng/RNA/mL; for Cyno hepatocytes- Editing % 1250: 1250 ng/RNA/mL; for Cyno hepatocytes- Editing % 2500: 2500 ng/RNA/mL; for Cyno hepatocytes- Editing % 5000: 5000 ng/RNA/mL; for editing activity in cynomolgus primary hepatocytes: ABE8.8 mRNA 1:1, three days after transfection
Procedure: as §1

[5] = test system: transthyretin (TTR) gene; experiment: Guide RNA screen in HEK293T cells: splice site disruption by base editors and bhCas12b nuclease (Example 5); assay type: cell-based, human; details: editor mRNA + sgRNA
Procedure: The guide RNAs listed in Table 1 were screened for use in editing the transthyretin (TTR) gene by disrupting splice sites (FIG. 29A-29C) or using a bhCas12b nuclease strategy (FIG. 30). 15 total guide RNAs were screened. The screen was performed in HEK293T cells using based editors and bhCas12b delivered as mRNA and the sgRNAs. The guide RNAs sgRNA_361 and sgRNA_362 worked well in splice site disruption (FIGS. 29A-29C) using ABE and/or BE4. Several of the gRNAs functioned well as bhCas 12b nuclease gRNAs.
Cells were cultured at 37° C. with 5% CO2. HEK293T cells [CLBTx013, American Type Cell Culture Collection (ATCC)] were cultured in Dulbecco's modified Eagles medium plus Glutamax (10566-016, Thermo Fisher Scientific) with 10% (v/v) fetal bovine serum (A31606-02, Thermo Fisher Scientific). Cells were tested negative for mycoplasma after receipt from supplier.
HEK293T cells were seeded onto 48-well well Poly-D-Lysine treated BioCoat plates (Corning) at a density of 35,000 cells/well and transfected 18-24 hours after plating. Cells were counted using a NucleoCounter NC-200 (Chemometec). A solution was prepared containing Opti-MEM reduced serum media (ThermoFisher Scientific), the base editor, nuclease, or control mRNA, and sgRNA. The solution was combined with Lipofectamine MessengerMAX (ThermoFisher) in Opti-MEM reduced serum media and left to rest at room temperature for 15 min. […]

[6] = GA459 On-target site (SEQ ID NO: 468)
[7] = GA459 off-target site OT1 (SEQ ID NO: 1095)
[8] = GA459 off-target site OT3 (SEQ ID NO: 1096)

GA457: guide RNA, spacer 5′-GCCAUCCUGCCAAGAAUGAG-3′ (SEQ ID NO: 472), human TTR
net editing at off-target sites ([1]; 47 candidate off-target sites, primary human hepatocytes): less than 0.4% | editing efficiency at the on-target site ([1]; primary human hepatocytes): high editing efficiency | Human hepatocytes- Editing % 625, rep 1 [2]: 17.24% | Human hepatocytes- Editing % 625, rep 2 [2]: 15.39% | Human hepatocytes- Editing % 1250, rep 1 [2]: 26.49% | Human hepatocytes- Editing % 1250, rep 2 [2]: 24.86% | Human hepatocytes- Editing % 2500, rep 1 [2]: 33.96% | Human hepatocytes- Editing % 2500, rep 2 [2]: 31.31% | editing activity (percent splice editing) in human hepatocytes [2]: high editing activity

antibodies of the human prealbumin (TTR) ELISA kit (Abcam, ab231920) (antibody)
cross-reactivity [3]: 4%

B1: GA460: guide RNA, spacer 5′-UAUAGGAAAACCAGUGAGUC-3′ (SEQ ID NO: 475) (nucleic acid)
guide: TATAGGAAAACCAGTGAGTCGTTTTAGAGCTAGAAATAGCAAGTTAAAATAAGGCTAGTCCGTTATCAACTTGAAAAAGTGGCACCGAGTCGGTGCTTTT
modifications: chemistry not given here
off-target editing observed at candidate off-target sites [1]: little to no off-target editing | editing efficiency at the on-target site ([1]; primary human hepatocytes): high editing efficiency | Human hepatocytes- Editing % 625, rep 1 [2]: 23.77% | Human hepatocytes- Editing % 625, rep 2 [2]: 22.27% | Human hepatocytes- Editing % 1250, rep 1 [2]: 38.33% | Human hepatocytes- Editing % 1250, rep 2 [2]: 35.8% | Human hepatocytes- Editing % 2500, rep 1 [2]: 47.61% | Human hepatocytes- Editing % 2500, rep 2 [2]: 47.79% | editing activity (percent splice editing) in human hepatocytes [2]: high editing activity | Cyno hepatocytes- Editing % 156.25 [4]: 1.62% | Cyno hepatocytes- Editing % 312.5 [4]: 11.22% | Cyno hepatocytes- Editing % 625 [4]: 18.44% | Cyno hepatocytes- Editing % 1250 [4]: 31.71% | Cyno hepatocytes- Editing % 2500 [4]: 38.25% | Cyno hepatocytes- Editing % 5000 [4]: 40.16% | editing activity in cynomolgus primary hepatocytes [4]: high editing activity

B2: GA461: guide RNA, spacer 5′-UACUCACCUCUGCAUGCUCA-3′ (SEQ ID NO: 476) (nucleic acid)
guide: TACTCACCTCTGCATGCTCAGTTTTAGAGCTAGAAATAGCAAGTTAAAATAAGGCTAGTCCGTTATCAACTTGAAAAAGTGGCACCGAGTCGGTGCTTTT
modifications: chemistry not given here
off-target editing observed at candidate off-target sites [1]: little to no off-target editing | editing efficiency at the on-target site ([1]; primary human hepatocytes): high editing efficiency | Human hepatocytes- Editing % 625, rep 1 [2]: 21.81% | Human hepatocytes- Editing % 625, rep 2 [2]: 22.31% | Human hepatocytes- Editing % 1250, rep 1 [2]: 32.82% | Human hepatocytes- Editing % 1250, rep 2 [2]: 32.38% | Human hepatocytes- Editing % 2500, rep 1 [2]: 40.42% | Human hepatocytes- Editing % 2500, rep 2 [2]: 39.43% | editing activity (percent splice editing) in human hepatocytes [2]: high editing activity | Cyno hepatocytes- Editing % 156.25 [4]: 0.07% | Cyno hepatocytes- Editing % 312.5 [4]: 7.45% | Cyno hepatocytes- Editing % 625 [4]: 13.16% | Cyno hepatocytes- Editing % 1250 [4]: 19.46% | Cyno hepatocytes- Editing % 2500 [4]: 29.8% | Cyno hepatocytes- Editing % 5000 [4]: 37.53% | editing activity in cynomolgus primary hepatocytes [4]: high editing activity

B3: GA459: guide RNA, spacer 5′-GCAACUUACCCAGAGGCAAA-3′ (SEQ ID NO: 474) (nucleic acid)
guide: GCAACTTACCCAGAGGCAAAGTTTTAGAGCTAGAAATAGCAAGTTAAAATAAGGCTAGTCCGTTATCAACTTGAAAAAGTGGCACCGAGTCGGTGCTTTT
modifications: chemistry not given here
off-target editing observed at candidate off-target sites [1]: little to no off-target editing | SUM Editing %- Human Primary Hepatocytes Treat rep 1 [1, 6]: 14.17% | SUM Editing %- Human Primary Hepatocytes Treat rep 2 [1, 6]: 14.29% | SUM Editing %- Human Primary Hepatocytes Treat rep 1 [1, 7]: 1.19% | SUM Editing %- Human Primary Hepatocytes Treat rep 2 [1, 7]: 1.25% | SUM Editing %- Human Primary Hepatocytes Treat rep 1 [1, 8]: 0.98% | SUM Editing %- Human Primary Hepatocytes Treat rep 2 [1, 8]: 0.82% | editing efficiency at the on-target site ([1]; primary human hepatocytes): high editing efficiency | Human hepatocytes- Editing % 625, rep 1 [2]: 3.79% | Human hepatocytes- Editing % 625, rep 2 [2]: 3.89% | Human hepatocytes- Editing % 1250, rep 1 [2]: 5.46% | Human hepatocytes- Editing % 1250, rep 2 [2]: 6.15% | Human hepatocytes- Editing % 2500, rep 1 [2]: 8.5% | Human hepatocytes- Editing % 2500, rep 2 [2]: 8.69%

B4: sgRNA_361: guide RNA, SEQ ID NO: 479 (nucleic acid)
guide: mU*mA*mU*rArGrGrArArArArCrCrArGrUrGrArGrUrCrGrUrUrUrUrArGrArGrCrUrArGrArArArUrArGrCrArArGrUrUrArArArArUrArArGrGrCrUrArGrUrCrCrGrUrUrArUrCrArArCrUrUrGrArArArArArGrUrGrGrCrArCrCrGrArGrUrCrGrGrUrGrCmU*mU*mU*rU
splice site disruption using ABE and/or BE4 [5]: worked well

B5: sgRNA_362: guide RNA, SEQ ID NO: 480 (nucleic acid)
guide: mU*mA*mC*rUrCrArCrCrUrCrUrGrCrArUrGrCrUrCrArGrUrUrUrUrArGrArGrCrUrArGrArArArUrArGrCrArArGrUrUrArArArArUrArArGrGrCrUrArGrUrCrCrGrUrUrArUrCrArArCrUrUrGrArArArArArGrUrGrGrCrArCrCrGrArGrUrCrGrGrUrGrCmU*mU*mU*rU
splice site disruption using ABE and/or BE4 [5]: worked well
